Where two headings read alike, the source gives them in different places.
Experiments:
[1] = target: T1, mouse FcγRIV (mouse, UniProt A0A0B4J1G0 21-203); assay: SPR, antibody captured by Protein L, mouse FcγR as analyte, pH 7.4, 25 C; set-up: unit not given here
T1 construct: bought; also called mFcgRIV; mFcgR IV; the vendor's purification tag not given
T1 sequence: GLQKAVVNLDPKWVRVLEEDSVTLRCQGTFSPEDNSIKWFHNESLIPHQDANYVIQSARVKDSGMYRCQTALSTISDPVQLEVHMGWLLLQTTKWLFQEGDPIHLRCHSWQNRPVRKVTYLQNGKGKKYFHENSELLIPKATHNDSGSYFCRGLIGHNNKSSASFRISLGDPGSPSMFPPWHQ

[2] = target: T2, mouse FcγRIII (mouse, UniProt P08508 31-215); assay: as above; set-up: unit not given here
T2 construct: bought; also called mFcgRIII; mFcgR III
T2 sequence (looked up): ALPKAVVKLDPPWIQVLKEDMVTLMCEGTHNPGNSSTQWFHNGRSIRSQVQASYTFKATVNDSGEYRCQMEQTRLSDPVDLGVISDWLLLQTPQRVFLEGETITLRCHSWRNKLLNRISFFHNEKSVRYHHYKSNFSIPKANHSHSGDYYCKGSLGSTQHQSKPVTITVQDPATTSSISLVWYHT

[3] = target: T3, mouse FcγRIIb (mouse, UniProt P08101 30-207, limits assumed); assay: as above; set-up: unit not given here
T3 construct: bought; also called mFcgRIIb; mFcgR IIb
T3 sequence (looked up): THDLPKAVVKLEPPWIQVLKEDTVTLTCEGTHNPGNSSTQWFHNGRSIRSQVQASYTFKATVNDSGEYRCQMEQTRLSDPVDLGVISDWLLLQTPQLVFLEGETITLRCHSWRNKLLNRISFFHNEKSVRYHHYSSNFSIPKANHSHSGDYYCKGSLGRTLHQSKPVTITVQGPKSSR

[4] = target: T4, mouse FcγRI (mouse, UniProt P26151 25-297); assay: as above; set-up: unit not given here
T4 construct: bought; also called mFcgRI; mFcgR 1
T4 sequence (looked up): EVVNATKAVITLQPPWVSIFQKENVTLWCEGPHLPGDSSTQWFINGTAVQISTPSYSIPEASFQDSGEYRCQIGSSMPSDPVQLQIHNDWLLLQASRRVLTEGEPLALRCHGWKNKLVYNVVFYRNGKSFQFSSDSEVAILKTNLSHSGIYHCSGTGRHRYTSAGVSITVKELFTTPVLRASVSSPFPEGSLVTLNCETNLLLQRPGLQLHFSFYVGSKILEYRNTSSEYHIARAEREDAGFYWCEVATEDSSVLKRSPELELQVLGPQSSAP

[5] = target: T5, human FcγRIIa(R) (human, UniProt P12318 36-217); assay: SPR, antibody captured by Protein L, human FcγR as analyte, pH 7.4, 25 C;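 note: biacore T100 or T200 with Protein L amine-coupled on a CM4 chip, FcγRs diluted in ACES saline with polysorbate 20, buffer-only injection as blank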
T5 construct: also called hFcgRIIa(R); FcγRIIa type R
T5 chain: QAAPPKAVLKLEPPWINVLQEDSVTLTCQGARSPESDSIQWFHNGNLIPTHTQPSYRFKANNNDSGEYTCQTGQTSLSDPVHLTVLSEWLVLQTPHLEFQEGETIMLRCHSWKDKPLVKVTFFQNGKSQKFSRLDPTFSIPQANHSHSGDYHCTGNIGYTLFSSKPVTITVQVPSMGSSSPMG

[6] = target: T6, human FcγRIIa(H) (human, UniProt P12318 36-217); assay: as above
T6 construct: also called hFcgRIIa(H); FcγRIIa type H
T6 sequence: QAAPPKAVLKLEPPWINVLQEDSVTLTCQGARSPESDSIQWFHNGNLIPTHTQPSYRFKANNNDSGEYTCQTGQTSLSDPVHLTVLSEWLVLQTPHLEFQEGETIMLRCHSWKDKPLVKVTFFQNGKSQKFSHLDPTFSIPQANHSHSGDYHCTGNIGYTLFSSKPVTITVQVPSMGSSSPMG

[7] = target: T7, human FcγRIIb (human, UniProt P31994 43-217, limits assumed); assay: as above
T7 construct: also called hFcgRIIb; FcγIIB
T7 sequence: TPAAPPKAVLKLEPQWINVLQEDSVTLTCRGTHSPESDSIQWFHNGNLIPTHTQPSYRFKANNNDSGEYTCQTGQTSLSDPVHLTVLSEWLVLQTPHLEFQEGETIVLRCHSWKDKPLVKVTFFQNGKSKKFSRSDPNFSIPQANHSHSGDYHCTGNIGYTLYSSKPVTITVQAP

[8] = target: T8, human FcγRIIIa(V) (human, UniProt P08637 17-208, limits assumed); assay: as above
T8 construct: also called hFcgRIIIa(V); allotype V158

[9] = target: T9, human FcγRIa (human, UniProt P12314 16-292, limits assumed); assay: as above
T9 construct: also called hFcgRIa; hFcgRI

[10] = target: T10, human FcRn (soluble human FcRn complexed with β2-microglobulin) (human, UniProt P61769 21-119, limits assumed); assay: SPR, antibody captured by Protein L, human FcRn as analyte, pH 7.0, 25 C
T10 construct: also called hFcRn

[11] = target: T10, human FcRn (soluble human FcRn …); assay: as above; remark: listed apart in the source
[12] = target: T10, human FcRn (soluble human FcRn …); assay: as above; remark: listed apart in the source
[13] = target: T1, mouse FcγRIV; assay: SPR, antibody captured by Protein L, mouse FcγR as analyte, pH 7.4, 25 C
[14] = target: T2, mouse FcγRIII; assay: as above
[15] = target: T3, mouse FcγRIIb; assay: as above
[16] = target: T4, mouse FcγRI; assay: as above

T8 sequence (P08637 other isoform, or with tags, fused parts or gaps limits assumed): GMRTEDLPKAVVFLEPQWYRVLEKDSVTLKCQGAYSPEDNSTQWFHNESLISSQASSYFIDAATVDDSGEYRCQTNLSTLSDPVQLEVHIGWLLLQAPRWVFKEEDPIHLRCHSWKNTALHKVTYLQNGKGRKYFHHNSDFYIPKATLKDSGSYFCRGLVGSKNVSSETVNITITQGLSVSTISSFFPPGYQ
T9 sequence (P12314 16-292 limits assumed): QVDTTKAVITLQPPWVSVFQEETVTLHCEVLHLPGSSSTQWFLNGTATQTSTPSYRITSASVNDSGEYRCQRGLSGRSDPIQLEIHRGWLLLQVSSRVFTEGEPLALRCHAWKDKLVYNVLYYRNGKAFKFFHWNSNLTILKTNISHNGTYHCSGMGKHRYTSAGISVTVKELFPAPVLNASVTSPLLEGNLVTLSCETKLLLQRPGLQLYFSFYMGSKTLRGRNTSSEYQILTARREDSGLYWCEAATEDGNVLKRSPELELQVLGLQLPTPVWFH

- binding amount [1]: 279
- binding amount [2]: 664
- binding amount [3]: 129
- binding amount [4]: 329
- BINDING AMOUNT (RU) [5]: 148 RU
- BINDING AMOUNT (RU) [6]: 154 RU
- BINDING AMOUNT (RU) [7]: 70.6 RU
- BINDING AMOUNT (RU) [8]: 221 RU
- BINDING AMOUNT (RU) [9]: 368 RU
- Kd [10]: 11 nM
- Kd [11]: 11 nM
- Kd [12]: 11 nM
- BINDING AMOUNT (RU) [13]: 242 RU
- BINDING AMOUNT (RU) [14]: 382 RU
- BINDING AMOUNT (RU) [15]: 117 RU
- BINDING AMOUNT (RU) [16]: 299 RU
B1: antibody with VH3-IgG1-F947 heavy chain and L(WT)-CK light chain (antibody)
heavy: QVQLQESGPGLVKPSETLSLTCAVSGHSISHDHAWSWVRQPPGEGLEWIGFISYSGITNYNPSLQGRVTISRDNSKNTLYLQMNSLRAEDTAVYYCARSLARTTAMDYWGEGTLVTVSSASTKGPSVFPLAPSSKSTSGGTAALGCLVKDYFPEPVTVSWNSGALTSGVHTFPAVLQSSGLYSLSSVVTVPSSSLGTQTYICNVNHKPSNTKVDKKVEPKSCDKTHTCPPCPAPELLGGPSVFLFPPKPKDVLYISRTPEVTCVVVDVSHEDPEVKFNWYVDGVEVHNAKTKPREEQYNSTYRVVSVLQPLHADWLNGKEYKCKVSNKALPAPIEKTISKAKGQPREPQVYTLPPSRDELTKNQVSLTCLVKGFYPSDIAVEWESNGQPENNYKTTPPVLDSDGSFFLYSKLTVDKSRWQQGNVFSCSVMHEALHYHVTQKSLSLSP
light: not shown
notes: T250V/M252Y/T307Q/V308P/Q311A/N434Y/Y436V; copies: 2 + 2
